{
  "source": "paper PMC9352680",
  "about": "“A comprehensive thermodynamic model for RNA binding by the Saccharomyces cerevisiae Pumilio protein PUF4”",
  "binders": {"B1": {"name": "Ic_S4_P4E.1_K4.1_C4.1_H4.1_A4.1_[T5G]_[A6C]_[T7A]_F4.1_[A9C]_T4.1 (ssRNA)", "RNA": "UUUGACAACUGAUCGUUCUUUCUUGUAGCAUCUUCUUUCUCGAUCAGUUGUCUUU"}, "B2": {"name": "Ic_S4_P4E.1_K4.1_C4.1_H4.1_A4.1_[T5G]_[A6T]_[T7A]_F4.1_[T8C]_[A9T]_T4.1 (ssRNA)", "RNA": "B1 RNA with C29U, U31C, C32U"}, "B3": {"name": "Ic_S4_P4E.1_K4.1_C4.1_H4.1_A4.1_[T5G]_[A6C]_F4.1_[T8C]_T4.1 (ssRNA)", "RNA": "B1 RNA with A30U, U31C, C32A"}, "B4": {"name": "Ic_S4_P4E.1_K4.1_C4.1_H4.1_A4.1_[T5G]_[A6T]_[T7A]_F4.1_[T8C]_[A9G]_T4.1 (ssRNA)", "RNA": "B1 RNA with C29U, U31C, C32G"}, "B5": {"name": "Ic_S4_P4E.1_K4.1_C4.1_H4.1_A4.1_[T5G]_[A6T]_[T7A]_F4.1_[T8G]_[A9T]_T4.1 (ssRNA)", "RNA": "B1 RNA with C29U, U31G, C32U"}, "B6": {"name": "Ic_S4_P4E.1_K4.1_C4.1_H4.1_A4.1_[T5G]_[A6T]_[T7A]_F4.1_[A9G]_T4.1 (ssRNA)", "RNA": "B1 RNA with C29U, C32G"}, "B7": {"name": "Ic_S4_P4E.1_K4.1_C4.1_H4.1_A4.1_[T5G]_[A6T]_[T7G]_F4.1_[A9C]_T4.1 (ssRNA)", "RNA": "B1 RNA with C29U, A30G"}, "B8": {"name": "Ic_S4_P4E.1_K4.1_C4.1_H4.1_A4.1_[T5G]_[A6T]_[T7C]_F4.1_[T8C]_[A9C]_T4.1 (ssRNA)", "RNA": "B1 RNA with C29U, A30C, U31C"}, "B9": {"name": "Ic_S4_P4E.1_K4.1_C4.1_H4.1_A4.1_[T5G]_[A6T]_[T7A]_F4.1_[A9T]_T4.1 (ssRNA)", "RNA": "B1 RNA with C29U, C32U"}, "B10": {"name": "Ic_S4_P4E.1_K4.1_C4.1_H4.1_A4.1_[T5G]_[A6T]_[T7C]_F4.1_[A9C]_T4.1 (ssRNA)", "RNA": "B1 RNA with C29U, A30C"}, "B11": {"name": "Ic_S4_P4E.1_K4.1_C4.1_H4.1_A4.1_[T5G]_[A6T]_[T7C]_F4.1_[T8C]_[A9T]_T4.1 (ssRNA)", "RNA": "B1 RNA with C29U, A30C, U31C, C32U"}, "B12": {"name": "Ic_S4_P4E.1_K4.1_C4.1_H4.1_A4.1_[T5G]_[A6T]_[T7C]_F4.1_[T8C]_[A9G]_T4.1 (ssRNA)", "RNA": "B1 RNA with C29U, A30C, U31C, C32G"}, "B13": {"name": "Ic_S4_P4E.1_K4.1_C4.1_H4.1_A4.1_[T5G]_[A6C]_F4.1_[A9T]_T4.1 (ssRNA)", "RNA": "B1 RNA with A30U, C32U"}, "B14": {"name": "Ic_S4_P4E.1_K4.1_C4.1_H4.1_A4.1_[T5G]_[A6T]_[T7A]_F4.1_[T8A]_T4.1 (ssRNA)", "RNA": "B1 RNA with C29U, U31A, C32A"}, "B15": {"name": "Ic_S4_P4E.1_K4.1_C4.1_H4.1_A4.1_[T5G]_[A6T]_[T7A]_F4.1_[T8A]_[A9C]_T4.1 (ssRNA)", "RNA": "B1 RNA with C29U, U31A"}, "B16": {"name": "Ic_S4_P4E.1_K4.1_C4.1_H4.1_A4.1_[T5G]_[A6T]_[T7C]_F4.1_[A9G]_T4.1 (ssRNA)", "RNA": "B1 RNA with C29U, A30C, C32G"}, "B17": {"name": "Ic_S4_P4E.1_K4.1_C4.1_H4.1_A4.1_[T5G]_[A6T]_[T7G]_F4.1_T4.1 (ssRNA)", "RNA": "B1 RNA with C29U, A30G, C32A"}, "B18": {"name": "Ic_S4_P4E.1_K4.1_C4.1_H4.1_A4.1_[T5G]_[A6C]_F4.1_[T8G]_[A9T]_T4.1 (ssRNA)", "RNA": "B1 RNA with A30U, U31G, C32U"}, "B19": {"name": "Ic_S4_P4E.1_K4.1_C4.1_H4.1_A4.1_[T5G]_[A6T]_[T7C]_F4.1_[T8C]_T4.1 (ssRNA)", "RNA": "B1 RNA with C29U, A30C, U31C, C32A"}, "B20": {"name": "Ic_S4_P4E.1_K4.1_C4.1_H4.1_A4.1_[T5G]_[A6T]_[T7C]_F4.1_[T8G]_[A9T]_T4.1 (ssRNA)", "RNA": "B1 RNA with C29U, A30C, U31G, C32U"}, "B21": {"name": "Ic_S4_P4E.1_K4.1_C4.1_H4.1_A4.1_[T5G]_[A6T]_[T7G]_F4.1_[T8C]_[A9C]_T4.1 (ssRNA)", "RNA": "B1 RNA with C29U, A30G, U31C"}, "B22": {"name": "Ic_S4_P4E.1_K4.1_C4.1_H4.1_A4.1_[T5G]_[A6T]_[T7A]_F4.1_[A9C]_T4.1 (ssRNA)", "RNA": "B1 RNA with C29U"}, "B23": {"name": "Ic_S4_P4E.1_K4.1_C4.1_H4.1_A4.1_[T5G]_[A6T]_[T7G]_F4.1_[T8C]_[A9T]_T4.1 (ssRNA)", "RNA": "B1 RNA with C29U, A30G, U31C, C32U"}},
  "note": "Numbering of substitutions follows the chain as printed. Names and notes keep the numbering of the source.",
  "data": [
    {"target": "T1, PUF4 RNA-binding domain (Saccharomyces cerevisiae, UniProt P25339 537-888)", "T1 sequence": "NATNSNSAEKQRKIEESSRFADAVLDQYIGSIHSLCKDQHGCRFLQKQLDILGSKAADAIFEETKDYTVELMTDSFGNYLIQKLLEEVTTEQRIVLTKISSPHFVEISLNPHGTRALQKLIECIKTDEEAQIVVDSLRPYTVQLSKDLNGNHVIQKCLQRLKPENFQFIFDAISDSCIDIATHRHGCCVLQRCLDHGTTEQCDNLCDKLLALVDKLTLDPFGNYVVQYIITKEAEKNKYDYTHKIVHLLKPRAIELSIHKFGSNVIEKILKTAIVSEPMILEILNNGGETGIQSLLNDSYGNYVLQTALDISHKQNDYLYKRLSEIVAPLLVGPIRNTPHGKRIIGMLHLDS", "assay": "Mg; RNA-MaP; 20 mM Na-HEPES pH 7.4, 30 mM KOAc, 0.75 mM MgCl2, 0.1% Tween-20, 5% glycerol, 0.1 mg/mL BSA, 2 mM DTT; 25 C; 0.0125-409.6 nM protein", "settings": "tags: N-His6-TEV cleaved; C-SNAP kept, Cy3B-labelled; label: tethered on chip by stalled RNA polymerase", "units": {"Kd": "nM"}, "values": [
      {"binder": "B1", "Kd": 61.1},
      {"binder": "B2", "Kd": 285},
      {"binder": "B3", "Kd": 365},
      {"binder": "B4", "Kd": 688},
      {"binder": "B5", "Kd": 649},
      {"binder": "B6", "Kd": 37.3},
      {"binder": "B7", "Kd": 238},
      {"binder": "B8", "Kd": 514},
      {"binder": "B9", "Kd": 40.6},
      {"binder": "B10", "Kd": 155},
      {"binder": "B11", "Kd": 194},
      {"binder": "B12", "Kd": 701},
      {"binder": "B13", "Kd": 40.5},
      {"binder": "B14", "Kd": 445},
      {"binder": "B15", "Kd": 977},
      {"binder": "B16", "Kd": 166},
      {"binder": "B17", "Kd": 12.1},
      {"binder": "B18", "Kd": 117},
      {"binder": "B19", "Kd": 445},
      {"binder": "B20", "Kd": 616},
      {"binder": "B21", "Kd": 1240},
      {"binder": "B22", "Kd": 173},
      {"binder": "B23", "Kd": 467},
      {"binder": "UCUCUUUGUUUAUUCUCUCUU (ssRNA)", "note": "[Ib_S1_P4E.1_K4.1_C4.1_H4.1_[A4T]_A4.1_F4.1_[A9C]_T4.1]", "Kd": 804},
      {"binder": "UCUCUUUGUGUAUUUUCUCUU (ssRNA)", "note": "[Ib_S1_P4E.1_K4.1_C4.1_H4.1_[A4G]_A4.1_F4.1_[A9T]_T4.1]", "Kd": 33.2}
    ]}
  ]
}
